The text below walks through data of patent publication US20140141023A1 (PIERRE FABRE MEDICAMENT, published 2014).

The target of assay [1] is human protein Axl expressed on cells (SN12C human renal tumor cells; CHO-Axl cells) (human) (UniProt P30530). Briefly: flow cytometry, labelling of untreated (No Ab) SN12C cells. (In flow cytometry, cells or beads pass a laser one at a time.)
Assay [2] has the same target. Briefly: flow cytometry, labelling of SN12C cells treated 24 h with 9G4 at 10 µg/ml.
For assay [3] the target is unchanged. Briefly: QIFIKIT quantitative flow cytometry on SN12C cells (renal).
Assay [4] has the same target. Briefly: QIFIKIT quantitative flow cytometry on A431 cells (epidermoid carcinoma).
Assay [5] shares this target. Description: QIFIKIT quantitative flow cytometry on DU-145 cells (prostate).
For assay [6] the target is unchanged. Description: QIFIKIT quantitative flow cytometry on Calu-1 cells (lung).
Assay [7] shares this target. Description: QIFIKIT quantitative flow cytometry on Panc1 cells (pancreas).
The target is the same in assay [8]. Description: QIFIKIT quantitative flow cytometry on NCI-H226 cells (NSCLC).
Assay [9] has the same target. Briefly: Qifikit (Dako) quantitative flow cytometry on SN12C human renal cancer cells.
Assay [10] has the same target. Briefly: QIFIKIT quantitative flow cytometry on PC3 cells (prostate).
The target is the same in assay [11]. Briefly: QIFIKIT quantitative flow cytometry on MCF7 cells (breast).
For assay [12] the target is unchanged. Description: QIFIKIT quantitative flow cytometry on A172 cells (glioblastoma).
Assay [13] shares this target. Description: QIFIKIT quantitative flow cytometry on MDA-MB-435S cells (breast).
For assay [14] the target is unchanged. Description: QIFIKIT quantitative flow cytometry on MDA-MB-231 cells (breast).
For assay [15] the target is unchanged. Briefly: QIFIKIT quantitative flow cytometry on NCI-H125 cells (NSCLC).
Assay [16] deals with T1, human protein Axl expressed on cells (SN12C human renal tumor cells; CHO-Axl cells) (human, UniProt P30530 26-894).
T1 construct: also called membrane Axl receptor; cell-surface Axl
T1 sequence: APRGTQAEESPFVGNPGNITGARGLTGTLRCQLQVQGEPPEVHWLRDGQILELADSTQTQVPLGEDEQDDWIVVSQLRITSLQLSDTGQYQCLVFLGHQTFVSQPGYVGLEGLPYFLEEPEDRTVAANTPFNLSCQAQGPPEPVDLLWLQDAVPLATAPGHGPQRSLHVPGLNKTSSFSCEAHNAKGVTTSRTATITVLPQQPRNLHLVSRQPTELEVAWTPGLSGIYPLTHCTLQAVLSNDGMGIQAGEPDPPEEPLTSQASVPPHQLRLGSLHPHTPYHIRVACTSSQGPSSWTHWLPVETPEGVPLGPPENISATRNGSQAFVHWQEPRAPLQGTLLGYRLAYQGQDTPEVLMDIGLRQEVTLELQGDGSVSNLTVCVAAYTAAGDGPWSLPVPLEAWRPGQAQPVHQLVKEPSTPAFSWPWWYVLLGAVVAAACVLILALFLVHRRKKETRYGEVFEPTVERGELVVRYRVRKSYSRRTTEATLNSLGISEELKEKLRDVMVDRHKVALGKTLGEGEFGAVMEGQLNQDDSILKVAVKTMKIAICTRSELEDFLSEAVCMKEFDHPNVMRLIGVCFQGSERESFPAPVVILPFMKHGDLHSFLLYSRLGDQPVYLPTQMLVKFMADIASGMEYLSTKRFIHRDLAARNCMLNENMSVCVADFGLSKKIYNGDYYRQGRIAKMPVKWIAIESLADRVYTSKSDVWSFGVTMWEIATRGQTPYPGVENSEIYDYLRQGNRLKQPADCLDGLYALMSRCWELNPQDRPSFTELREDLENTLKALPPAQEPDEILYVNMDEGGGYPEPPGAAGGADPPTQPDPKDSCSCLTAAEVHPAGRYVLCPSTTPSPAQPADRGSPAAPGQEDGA
Briefly: flow cytometry on SN12C cells, goat anti-mouse Alexa 488.

Assay [17] deals with monkey Axl receptor expressed on the surface of COS7 cells (African green monkey). Briefly: flow cytometry on COS7 cells, goat anti-mouse Alexa 488.
Assay [18] shares this target. Briefly: flow cytometry titration on COS7 cells.

With 9G4 (mIgG1 isotype control antibody), the results for the MFI at T24 h in assay [1] and in assay [2] were 11 MFI and 13 MFI, respectively.

Turning to “MAB154 anti-Axl commercial antibody (R and D Systems)”, the ABC (Qifikit) is more than 100000 ABC in [3]; 3950 ABC in [4]; 55300 ABC in [5]; more than 100000 ABC in [6]; 36800 ABC in assay [7]; 32100 ABC in assay [8]. Moreover, the ABC (Qifikit) in assay [10] came to 8420 ABC; in assay [11], 71 ABC; in assay [12], 52400 ABC; in assay [13], 17800 ABC; in assay [14], 61200 ABC; in assay [15], 5540 ABC. In addition, in assay [9], the Antigen binding capacity (Qifikit) is more than 100000 ABC. In addition, the MFI at T24 h in assay [1] is 950 MFI.

B1: 1613F12 (antibody, V domains shown)
VH: EVHLQQSGAELVKPGASVKLSCTASGFNIRDTYIHWVKQRPEQGLEWIGRLDPANGHTKYGPNFQGRATMTSDTSSNTAYLQLSSLTSEDTAVYYCARGAYYYGSSGLFYFDYWGQGTTLSVSS
VL: DVQITQSPSYLATSPGETITINCRASKSISKYLAWYQEKPGKTNKLLIYSGSTLQSGVPSRFSGSGSGTDFTLTISSLEPEDFAMYFCQQHHEYPLTFGAGTELELK
notes: also called 1613F12 antibody; 1613F12 Mab
Broadly, the EC50 (read off the curve) is the midpoint of the concentration-response curve. For B1, the results for the “EC50 (read off the curve)” value in assay [16] and in assay [17] were approximately 0.9 nM and 1 nM, respectively. Besides, the concentration above which the plateau is reached in assay [18] was more than 420 pM.
